From paper PMC2831328

Molecular target: HCV NS3 helicase (WT) (Hepatitis C virus (subgenomic replicon …, UniProt Q9WMX2 1027-1657))
Assay: competition

Sequence of HCV NS3 helicase (WT) (Hepatitis C virus (Q9WMX2 1027-1657): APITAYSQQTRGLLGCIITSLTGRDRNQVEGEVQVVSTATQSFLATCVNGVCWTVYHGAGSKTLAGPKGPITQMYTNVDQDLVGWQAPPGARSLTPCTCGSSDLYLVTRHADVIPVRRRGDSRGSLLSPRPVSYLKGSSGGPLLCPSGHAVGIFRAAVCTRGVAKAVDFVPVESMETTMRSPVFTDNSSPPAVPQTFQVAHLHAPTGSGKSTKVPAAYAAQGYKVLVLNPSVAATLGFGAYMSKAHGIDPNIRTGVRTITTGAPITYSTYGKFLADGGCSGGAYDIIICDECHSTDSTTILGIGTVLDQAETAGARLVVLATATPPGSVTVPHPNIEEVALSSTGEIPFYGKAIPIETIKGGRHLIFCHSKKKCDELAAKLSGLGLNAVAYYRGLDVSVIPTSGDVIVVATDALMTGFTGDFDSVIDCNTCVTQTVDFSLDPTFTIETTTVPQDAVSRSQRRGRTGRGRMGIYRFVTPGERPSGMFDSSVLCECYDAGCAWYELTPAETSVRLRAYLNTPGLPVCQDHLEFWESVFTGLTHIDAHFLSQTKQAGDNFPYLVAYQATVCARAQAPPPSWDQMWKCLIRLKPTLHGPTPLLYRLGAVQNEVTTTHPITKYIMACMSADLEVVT

B1: ds9 (competitor duplex) (dsRNA)
RNA 1: GCCGCCCGG
RNA 2: CCGGGCGGC
Work on B1 yielded a Ki of 90 ± 20 nM.
